B1: H-H-Aib-PGTFTSDYSRYLDE-K(Hexadecanoyl-isoGlu)-RARDFIEWLLSA-NH2 [Compound 15] (peptide)
peptide: HXPGTFTSDYSRYLDEKRARDFIEWLLSA
HELM: PEPTIDE1{H.[Aib].P.G.T.F.T.S.D.Y.S.R.Y.L.D.E.K.R.A.R.D.F.I.E.W.L.L.S.A.[am]}|PEPTIDE2{[CCCCCCCCCCCCCCCC(=O)[*:2]].[gGlu]}$PEPTIDE1,PEPTIDE2,17:R3-2:R2$$$V2.0
SMILES: CCCCCCCCCCCCCCCC(=O)N[C@@H](CCC(=O)NCCCC[C@H](NC(=O)[C@H](CCC(=O)O)NC(=O)[C@H](CC(=O)O)NC(=O)[C@H](CC(C)C)NC(=O)[C@H](Cc1ccc(O)cc1)NC(=O)[C@H](CCCNC(=N)N)NC(=O)[C@H](CO)NC(=O)[C@H](Cc1ccc(O)cc1)NC(=O)[C@H](CC(=O)O)NC(=O)[C@H](CO)NC(=O)[C@@H](NC(=O)[C@H](Cc1ccccc1)NC(=O)[C@@H](NC(=O)CNC(=O)[C@@H]1CCCN1C(=O)C(C)(C)NC(=O)[C@@H](N)Cc1c[nH]cn1)[C@@H](C)O)[C@@H](C)O)C(=O)N[C@@H](CCCNC(=N)N)C(=O)N[C@@H](C)C(=O)N[C@@H](CCCNC(=N)N)C(=O)N[C@@H](CC(=O)O)C(=O)N[C@@H](Cc1ccccc1)C(=O)N[C@H](C(=O)N[C@@H](CCC(=O)O)C(=O)N[C@@H](Cc1c[nH]c2ccccc12)C(=O)N[C@@H](CC(C)C)C(=O)N[C@@H](CC(C)C)C(=O)N[C@@H](CO)C(=O)N[C@@H](C)C(N)=O)[C@@H](C)CC)C(=O)O
B2: H-HSQGTFTSDYSRYLDE-K(Hexadecanoyl-isoGlu)-RARDFIEWLLSA-NH2 [Compound 7] (peptide)
peptide: HSQGTFTSDYSRYLDEKRARDFIEWLLSA
HELM: PEPTIDE1{H.S.Q.G.T.F.T.S.D.Y.S.R.Y.L.D.E.K.R.A.R.D.F.I.E.W.L.L.S.A.[am]}|PEPTIDE2{[CCCCCCCCCCCCCCCC(=O)[*:2]].[gGlu]}$PEPTIDE1,PEPTIDE2,17:R3-2:R2$$$V2.0
SMILES: CCCCCCCCCCCCCCCC(=O)N[C@@H](CCC(=O)NCCCC[C@H](NC(=O)[C@H](CCC(=O)O)NC(=O)[C@H](CC(=O)O)NC(=O)[C@H](CC(C)C)NC(=O)[C@H](Cc1ccc(O)cc1)NC(=O)[C@H](CCCNC(=N)N)NC(=O)[C@H](CO)NC(=O)[C@H](Cc1ccc(O)cc1)NC(=O)[C@H](CC(=O)O)NC(=O)[C@H](CO)NC(=O)[C@@H](NC(=O)[C@H](Cc1ccccc1)NC(=O)[C@@H](NC(=O)CNC(=O)[C@H](CCC(N)=O)NC(=O)[C@H](CO)NC(=O)[C@@H](N)Cc1c[nH]cn1)[C@@H](C)O)[C@@H](C)O)C(=O)N[C@@H](CCCNC(=N)N)C(=O)N[C@@H](C)C(=O)N[C@@H](CCCNC(=N)N)C(=O)N[C@@H](CC(=O)O)C(=O)N[C@@H](Cc1ccccc1)C(=O)N[C@H](C(=O)N[C@@H](CCC(=O)O)C(=O)N[C@@H](Cc1c[nH]c2ccccc12)C(=O)N[C@@H](CC(C)C)C(=O)N[C@@H](CC(C)C)C(=O)N[C@@H](CO)C(=O)N[C@@H](C)C(N)=O)[C@@H](C)CC)C(=O)O
B3: H-H-DSer-PGTFTSDYSKYLDE-K(Hexadecanoyl-isoGlu)-RAKDFIEWLLSA-NH2 [Compound 21] (peptide)
peptide: HSPGTFTSDYSKYLDEKRAKDFIEWLLSA
HELM: PEPTIDE1{H.[dS].P.G.T.F.T.S.D.Y.S.K.Y.L.D.E.K.R.A.K.D.F.I.E.W.L.L.S.A.[am]}|PEPTIDE2{[CCCCCCCCCCCCCCCC(=O)[*:2]].[gGlu]}$PEPTIDE1,PEPTIDE2,17:R3-2:R2$$$V2.0
SMILES: CCCCCCCCCCCCCCCC(=O)N[C@@H](CCC(=O)NCCCC[C@H](NC(=O)[C@H](CCC(=O)O)NC(=O)[C@H](CC(=O)O)NC(=O)[C@H](CC(C)C)NC(=O)[C@H](Cc1ccc(O)cc1)NC(=O)[C@H](CCCCN)NC(=O)[C@H](CO)NC(=O)[C@H](Cc1ccc(O)cc1)NC(=O)[C@H](CC(=O)O)NC(=O)[C@H](CO)NC(=O)[C@@H](NC(=O)[C@H](Cc1ccccc1)NC(=O)[C@@H](NC(=O)CNC(=O)[C@@H]1CCCN1C(=O)[C@@H](CO)NC(=O)[C@@H](N)Cc1c[nH]cn1)[C@@H](C)O)[C@@H](C)O)C(=O)N[C@@H](CCCNC(=N)N)C(=O)N[C@@H](C)C(=O)N[C@@H](CCCCN)C(=O)N[C@@H](CC(=O)O)C(=O)N[C@@H](Cc1ccccc1)C(=O)N[C@H](C(=O)N[C@@H](CCC(=O)O)C(=O)N[C@@H](Cc1c[nH]c2ccccc12)C(=O)N[C@@H](CC(C)C)C(=O)N[C@@H](CC(C)C)C(=O)N[C@@H](CO)C(=O)N[C@@H](C)C(N)=O)[C@@H](C)CC)C(=O)O
B4: H-HSHGTFTSDYSKYLDE-K(Hexadecanoyl-isoGlu)-RAKDFIEWLLSA-NH2 [Compound 18] (peptide)
peptide: HSHGTFTSDYSKYLDEKRAKDFIEWLLSA
HELM: PEPTIDE1{H.S.H.G.T.F.T.S.D.Y.S.K.Y.L.D.E.K.R.A.K.D.F.I.E.W.L.L.S.A.[am]}|PEPTIDE2{[CCCCCCCCCCCCCCCC(=O)[*:2]].[gGlu]}$PEPTIDE1,PEPTIDE2,17:R3-2:R2$$$V2.0
SMILES: CCCCCCCCCCCCCCCC(=O)N[C@@H](CCC(=O)NCCCC[C@H](NC(=O)[C@H](CCC(=O)O)NC(=O)[C@H](CC(=O)O)NC(=O)[C@H](CC(C)C)NC(=O)[C@H](Cc1ccc(O)cc1)NC(=O)[C@H](CCCCN)NC(=O)[C@H](CO)NC(=O)[C@H](Cc1ccc(O)cc1)NC(=O)[C@H](CC(=O)O)NC(=O)[C@H](CO)NC(=O)[C@@H](NC(=O)[C@H](Cc1ccccc1)NC(=O)[C@@H](NC(=O)CNC(=O)[C@H](Cc1c[nH]cn1)NC(=O)[C@H](CO)NC(=O)[C@@H](N)Cc1c[nH]cn1)[C@@H](C)O)[C@@H](C)O)C(=O)N[C@@H](CCCNC(=N)N)C(=O)N[C@@H](C)C(=O)N[C@@H](CCCCN)C(=O)N[C@@H](CC(=O)O)C(=O)N[C@@H](Cc1ccccc1)C(=O)N[C@H](C(=O)N[C@@H](CCC(=O)O)C(=O)N[C@@H](Cc1c[nH]c2ccccc12)C(=O)N[C@@H](CC(C)C)C(=O)N[C@@H](CC(C)C)C(=O)N[C@@H](CO)C(=O)N[C@@H](C)C(N)=O)[C@@H](C)CC)C(=O)O
B5: H-H-Aib-QGTFTSDYSKYLDERRA-K(Hexadecanoyl-isoGlu)-DFIEWLLSA-NH2 [Compound 2] (peptide)
peptide: HXQGTFTSDYSKYLDERRAKDFIEWLLSA
HELM: PEPTIDE1{H.[Aib].Q.G.T.F.T.S.D.Y.S.K.Y.L.D.E.R.R.A.K.D.F.I.E.W.L.L.S.A.[am]}|PEPTIDE2{[CCCCCCCCCCCCCCCC(=O)[*:2]].[gGlu]}$PEPTIDE1,PEPTIDE2,20:R3-2:R2$$$V2.0
SMILES: CCCCCCCCCCCCCCCC(=O)N[C@@H](CCC(=O)NCCCC[C@H](NC(=O)[C@H](C)NC(=O)[C@H](CCCNC(=N)N)NC(=O)[C@H](CCCNC(=N)N)NC(=O)[C@H](CCC(=O)O)NC(=O)[C@H](CC(=O)O)NC(=O)[C@H](CC(C)C)NC(=O)[C@H](Cc1ccc(O)cc1)NC(=O)[C@H](CCCCN)NC(=O)[C@H](CO)NC(=O)[C@H](Cc1ccc(O)cc1)NC(=O)[C@H](CC(=O)O)NC(=O)[C@H](CO)NC(=O)[C@@H](NC(=O)[C@H](Cc1ccccc1)NC(=O)[C@@H](NC(=O)CNC(=O)[C@H](CCC(N)=O)NC(=O)C(C)(C)NC(=O)[C@@H](N)Cc1c[nH]cn1)[C@@H](C)O)[C@@H](C)O)C(=O)N[C@@H](CC(=O)O)C(=O)N[C@@H](Cc1ccccc1)C(=O)N[C@H](C(=O)N[C@@H](CCC(=O)O)C(=O)N[C@@H](Cc1c[nH]c2ccccc12)C(=O)N[C@@H](CC(C)C)C(=O)N[C@@H](CC(C)C)C(=O)N[C@@H](CO)C(=O)N[C@@H](C)C(N)=O)[C@@H](C)CC)C(=O)O
B6: H-HSQGTFTSDYSKYLDERRAKDFI-K(Hexadecanoyl-isoGlu)-WLLSA-NH2 [Compound 4] (peptide)
peptide: HSQGTFTSDYSKYLDERRAKDFIKWLLSA
HELM: PEPTIDE1{H.S.Q.G.T.F.T.S.D.Y.S.K.Y.L.D.E.R.R.A.K.D.F.I.K.W.L.L.S.A.[am]}|PEPTIDE2{[CCCCCCCCCCCCCCCC(=O)[*:2]].[gGlu]}$PEPTIDE1,PEPTIDE2,24:R3-2:R2$$$V2.0
SMILES: CCCCCCCCCCCCCCCC(=O)N[C@@H](CCC(=O)NCCCC[C@H](NC(=O)[C@@H](NC(=O)[C@H](Cc1ccccc1)NC(=O)[C@H](CC(=O)O)NC(=O)[C@H](CCCCN)NC(=O)[C@H](C)NC(=O)[C@H](CCCNC(=N)N)NC(=O)[C@H](CCCNC(=N)N)NC(=O)[C@H](CCC(=O)O)NC(=O)[C@H](CC(=O)O)NC(=O)[C@H](CC(C)C)NC(=O)[C@H](Cc1ccc(O)cc1)NC(=O)[C@H](CCCCN)NC(=O)[C@H](CO)NC(=O)[C@H](Cc1ccc(O)cc1)NC(=O)[C@H](CC(=O)O)NC(=O)[C@H](CO)NC(=O)[C@@H](NC(=O)[C@H](Cc1ccccc1)NC(=O)[C@@H](NC(=O)CNC(=O)[C@H](CCC(N)=O)NC(=O)[C@H](CO)NC(=O)[C@@H](N)Cc1c[nH]cn1)[C@@H](C)O)[C@@H](C)O)[C@@H](C)CC)C(=O)N[C@@H](Cc1c[nH]c2ccccc12)C(=O)N[C@@H](CC(C)C)C(=O)N[C@@H](CC(C)C)C(=O)N[C@@H](CO)C(=O)N[C@@H](C)C(N)=O)C(=O)O
B7: H-H-Aib-QGTFTSDYSRYLDE-K(Hexadecanoyl-isoGlu)-RAKDFIEWLLSA-NH2 [Compound 16] (peptide)
peptide: HXQGTFTSDYSRYLDEKRAKDFIEWLLSA
HELM: PEPTIDE1{H.[Aib].Q.G.T.F.T.S.D.Y.S.R.Y.L.D.E.K.R.A.K.D.F.I.E.W.L.L.S.A.[am]}|PEPTIDE2{[CCCCCCCCCCCCCCCC(=O)[*:2]].[gGlu]}$PEPTIDE1,PEPTIDE2,17:R3-2:R2$$$V2.0
SMILES: CCCCCCCCCCCCCCCC(=O)N[C@@H](CCC(=O)NCCCC[C@H](NC(=O)[C@H](CCC(=O)O)NC(=O)[C@H](CC(=O)O)NC(=O)[C@H](CC(C)C)NC(=O)[C@H](Cc1ccc(O)cc1)NC(=O)[C@H](CCCNC(=N)N)NC(=O)[C@H](CO)NC(=O)[C@H](Cc1ccc(O)cc1)NC(=O)[C@H](CC(=O)O)NC(=O)[C@H](CO)NC(=O)[C@@H](NC(=O)[C@H](Cc1ccccc1)NC(=O)[C@@H](NC(=O)CNC(=O)[C@H](CCC(N)=O)NC(=O)C(C)(C)NC(=O)[C@@H](N)Cc1c[nH]cn1)[C@@H](C)O)[C@@H](C)O)C(=O)N[C@@H](CCCNC(=N)N)C(=O)N[C@@H](C)C(=O)N[C@@H](CCCCN)C(=O)N[C@@H](CC(=O)O)C(=O)N[C@@H](Cc1ccccc1)C(=O)N[C@H](C(=O)N[C@@H](CCC(=O)O)C(=O)N[C@@H](Cc1c[nH]c2ccccc12)C(=O)N[C@@H](CC(C)C)C(=O)N[C@@H](CC(C)C)C(=O)N[C@@H](CO)C(=O)N[C@@H](C)C(N)=O)[C@@H](C)CC)C(=O)O

Molecular target: human glucagon receptor (Glucagon-R) (human, UniProt P47871 26-477)
Sequence (P47871 26-477): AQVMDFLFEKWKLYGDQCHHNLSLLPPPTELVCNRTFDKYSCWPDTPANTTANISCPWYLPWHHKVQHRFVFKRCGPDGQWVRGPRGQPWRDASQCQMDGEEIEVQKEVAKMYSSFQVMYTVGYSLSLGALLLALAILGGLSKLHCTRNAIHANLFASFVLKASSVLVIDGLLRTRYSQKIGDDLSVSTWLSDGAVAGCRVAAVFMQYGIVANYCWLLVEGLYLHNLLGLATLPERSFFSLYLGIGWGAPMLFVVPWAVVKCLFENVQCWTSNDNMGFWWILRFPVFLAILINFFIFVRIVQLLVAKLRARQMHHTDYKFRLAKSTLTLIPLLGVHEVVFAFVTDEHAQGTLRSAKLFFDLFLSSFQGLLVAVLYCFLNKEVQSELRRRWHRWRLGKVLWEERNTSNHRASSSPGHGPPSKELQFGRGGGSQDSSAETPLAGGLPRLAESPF
Assay: cell-based or functional assay

Compared with B1, B2 is 7-fold lower in “EC50 values for cAMP generation in HEK293 cells expressing Glucagon receptor” value: 420 pM for the first, 60 pM for the second.

Compared with B3, B4 is 2.3-fold lower in “EC50 values for cAMP generation in HEK293 cells expressing Glucagon receptor” value: 210 pM for the first, 90 pM for the second.

First: B5
Second: B6
The “EC50 values for cAMP generation in HEK293 cells expressing Glucagon receptor” value of the first is 2.3-fold lower: 350 pM for the first, 790 pM for the second.

B7 was tested, and the “EC50 values for cAMP generation in HEK293 cells expressing Glucagon receptor” value was 110 pM.

Molecular target: human glucagon-like peptide 1 receptor (GLP-1R) (human, UniProt P43220 24-463)
Assay: cell-based or functional assay

B1 and B2 are the same in “EC50 values for cAMP generation in HEK293 cells expressing GLP-1 receptor” value: 60 pM for the first, 60 pM for the second.

B3 and B4 are within 1.5-fold of each other in “EC50 values for cAMP generation in HEK293 cells expressing GLP-1 receptor” value: 80 pM for the first, 90 pM for the second.

Going from B5 to B6, the “EC50 values for cAMP generation in HEK293 cells expressing GLP-1 receptor” value rises from 360 pM to 1310 pM (3.6-fold).

In the case of B7, the “EC50 values for cAMP generation in HEK293 cells expressing GLP-1 receptor” value is reported as 60 pM.

— patent US20130316941A1 (Boehringer Ingelheim, published 2013)
